Results: article doi:10.1101/2020.10.05.327064 (bioRxiv, 2020)

T1: Human Hsf1 wild type (human), Q00613
T1 chain: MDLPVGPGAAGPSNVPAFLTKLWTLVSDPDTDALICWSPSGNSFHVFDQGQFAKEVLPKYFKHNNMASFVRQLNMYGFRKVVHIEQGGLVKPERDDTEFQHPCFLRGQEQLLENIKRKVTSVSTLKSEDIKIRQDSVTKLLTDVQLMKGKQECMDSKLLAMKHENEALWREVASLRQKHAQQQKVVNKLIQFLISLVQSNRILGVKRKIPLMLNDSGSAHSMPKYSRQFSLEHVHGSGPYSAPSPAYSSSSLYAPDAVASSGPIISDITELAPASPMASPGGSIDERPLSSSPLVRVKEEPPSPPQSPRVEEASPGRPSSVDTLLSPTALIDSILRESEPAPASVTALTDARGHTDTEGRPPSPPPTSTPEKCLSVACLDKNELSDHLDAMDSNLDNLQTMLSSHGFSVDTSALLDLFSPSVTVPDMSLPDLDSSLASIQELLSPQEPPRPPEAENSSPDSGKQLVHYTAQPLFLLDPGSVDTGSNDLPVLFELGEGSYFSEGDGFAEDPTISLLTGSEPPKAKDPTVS


Experiments:
[1] = target: T1, Human Hsf1 wild type (human), Q00613; assay: SEC; details: remark: other sources report otherwise
SEC = target: the molecule itself; assay: SEC

Binder | stoichiometry N [1] | stoichiometry N (SEC)
Human Hsf1 wild type, Q00613 1-529 (natural protein) MDLPVGPGAAGPSNVPAFLTKLWTLVSDPDTDALICWSPSGNSFHVFDQGQFAKEVLPKYFKHNNMASFVRQLNMYGFRKVVHIEQGGLVKPERDDTEFQHPCFLRGQEQLLENIKRKVTSVSTLKSEDIKIRQDSVTKLLTDVQLMKGKQECMDSKLLAMKHENEALWREVASLRQKHAQQQKVVNKLIQFLISLVQSNRILGVKRKIPLMLNDSGSAHSMPKYSRQFSLEHVHGSGPYSAPSPAYSSSSLYAPDAVASSGPIISDITELAPASPMASPGGSIDERPLSSSPLVRVKEEPPSPPQSPRVEEASPGRPSSVDTLLSPTALIDSILRESEPAPASVTALTDARGHTDTEGRPPSPPPTSTPEKCLSVACLDKNELSDHLDAMDSNLDNLQTMLSSHGFSVDTSALLDLFSPSVTVPDMSLPDLDSSLASIQELLSPQEPPRPPEAENSSPDSGKQLVHYTAQPLFLLDPGSVDTGSNDLPVLFELGEGSYFSEGDGFAEDPTISLLTGSEPPKAKDPTVS | 3 | 
Hsf1-S303E,S307E (natural protein) MDLPVGPGAAGPSNVPAFLTKLWTLVSDPDTDALICWSPSGNSFHVFDQGQFAKEVLPKYFKHNNMASFVRQLNMYGFRKVVHIEQGGLVKPERDDTEFQHPCFLRGQEQLLENIKRKVTSVSTLKSEDIKIRQDSVTKLLTDVQLMKGKQECMDSKLLAMKHENEALWREVASLRQKHAQQQKVVNKLIQFLISLVQSNRILGVKRKIPLMLNDSGSAHSMPKYSRQFSLEHVHGSGPYSAPSPAYSSSSLYAPDAVASSGPIISDITELAPASPMASPGGSIDERPLSSSPLVRVKEEPPEPPQEPRVEEASPGRPSSVDTLLSPTALIDSILRESEPAPASVTALTDARGHTDTEGRPPSPPPTSTPEKCLSVACLDKNELSDHLDAMDSNLDNLQTMLSSHGFSVDTSALLDLFSPSVTVPDMSLPDLDSSLASIQELLSPQEPPRPPEAENSSPDSGKQLVHYTAQPLFLLDPGSVDTGSNDLPVLFELGEGSYFSEGDGFAEDPTISLLTGSEPPKAKDPTVS |  | 3
